Source: article PMC5582868, “BLADE-ON-PETIOLE proteins act in an E3 ubiquitin ligase complex to regulate PHYTOCHROME INTERACTING FACTOR 4 abundance” (eLife, 2017)
One block for each binder: values may come before it.

Assays:
[1] = biological target: T1, His-GST-PIF4 (Arabidopsis thaliana (Mouse-ear cress), UniProt Q8W2F3); assay: GST pulldown
T1 chain: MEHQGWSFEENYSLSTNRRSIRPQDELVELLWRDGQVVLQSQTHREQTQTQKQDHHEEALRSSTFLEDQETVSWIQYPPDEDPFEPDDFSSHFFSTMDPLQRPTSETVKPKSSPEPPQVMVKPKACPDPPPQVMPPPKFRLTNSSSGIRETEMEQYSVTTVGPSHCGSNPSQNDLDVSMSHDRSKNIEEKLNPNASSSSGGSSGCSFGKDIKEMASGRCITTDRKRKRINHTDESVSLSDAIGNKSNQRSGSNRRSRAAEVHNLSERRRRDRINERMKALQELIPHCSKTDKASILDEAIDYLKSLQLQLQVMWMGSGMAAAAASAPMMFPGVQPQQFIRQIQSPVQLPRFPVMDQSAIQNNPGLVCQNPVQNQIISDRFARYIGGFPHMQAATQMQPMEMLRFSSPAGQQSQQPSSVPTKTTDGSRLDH

[2] = biological target: T2, His-MBP-BOP2 (Arabidopsis thaliana, UniProt Q9ZVC2 1-491); assay: pull-down; 1 µg GST-PIF4 on Glutathione Sepharose 4B beads; 1 µg MBP or MBP-BOP2 added in 300 µl binding buffer (50 mM Tris-Cl pH 7.6, 100 mM NaCl, 1 mM EDTA, 1% Triton X-100, 0.5 mM DTT, 5% glycerol), 4°C, 2 hr; blot with anti-MBP; details: both partners purified
T2 construct: BLADE-ON-PETIOLE 2 (BOP2), Arabidopsis thaliana; source: Escherichia coli BL21, purified (Ni-NTA Agarose)
T2 sequence (looked up): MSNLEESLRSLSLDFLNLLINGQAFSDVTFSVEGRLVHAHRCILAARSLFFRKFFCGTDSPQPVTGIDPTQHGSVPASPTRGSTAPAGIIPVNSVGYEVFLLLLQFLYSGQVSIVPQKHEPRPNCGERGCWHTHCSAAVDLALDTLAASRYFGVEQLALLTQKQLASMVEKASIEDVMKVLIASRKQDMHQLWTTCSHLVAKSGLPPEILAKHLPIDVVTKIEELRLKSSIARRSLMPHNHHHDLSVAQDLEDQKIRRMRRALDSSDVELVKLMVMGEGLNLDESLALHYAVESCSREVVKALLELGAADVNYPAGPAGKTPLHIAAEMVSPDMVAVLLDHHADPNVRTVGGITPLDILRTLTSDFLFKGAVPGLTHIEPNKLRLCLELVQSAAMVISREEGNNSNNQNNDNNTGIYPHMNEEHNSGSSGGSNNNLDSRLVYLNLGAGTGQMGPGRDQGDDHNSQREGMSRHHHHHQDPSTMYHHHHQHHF

binding result [1]: binds
B1: His-MBP-BOP2 (protein)
chain: T2 sequence (looked up)

binding result [2]: binds
B2: His-GST-PIF4 (natural protein, Arabidopsis thaliana, UniProt Q8W2F3 1-430, looked up)
chain: T1 chain
notes: also called glutathione S-transferase (GST) tagged PIF4; source: Escherichia coli BL21, purified (Ni-NTA Agarose)
